Paper PMC8263732, “M1BP cooperates with CP190 to activate transcription at TAD borders and promote chromatin insulator activity” (Nature Communications, 2021)

T1: Suppressor of Hairy wing [Su(Hw)] (Drosophila (endogenous in 0-24 h Oregon …, UniProt P08970 1-941))
T1 construct: endogenous protein in embryonic nuclear extract; source: endogenous, nuclear extract of 0-24 h Drosophila embryos
T1 sequence (looked up): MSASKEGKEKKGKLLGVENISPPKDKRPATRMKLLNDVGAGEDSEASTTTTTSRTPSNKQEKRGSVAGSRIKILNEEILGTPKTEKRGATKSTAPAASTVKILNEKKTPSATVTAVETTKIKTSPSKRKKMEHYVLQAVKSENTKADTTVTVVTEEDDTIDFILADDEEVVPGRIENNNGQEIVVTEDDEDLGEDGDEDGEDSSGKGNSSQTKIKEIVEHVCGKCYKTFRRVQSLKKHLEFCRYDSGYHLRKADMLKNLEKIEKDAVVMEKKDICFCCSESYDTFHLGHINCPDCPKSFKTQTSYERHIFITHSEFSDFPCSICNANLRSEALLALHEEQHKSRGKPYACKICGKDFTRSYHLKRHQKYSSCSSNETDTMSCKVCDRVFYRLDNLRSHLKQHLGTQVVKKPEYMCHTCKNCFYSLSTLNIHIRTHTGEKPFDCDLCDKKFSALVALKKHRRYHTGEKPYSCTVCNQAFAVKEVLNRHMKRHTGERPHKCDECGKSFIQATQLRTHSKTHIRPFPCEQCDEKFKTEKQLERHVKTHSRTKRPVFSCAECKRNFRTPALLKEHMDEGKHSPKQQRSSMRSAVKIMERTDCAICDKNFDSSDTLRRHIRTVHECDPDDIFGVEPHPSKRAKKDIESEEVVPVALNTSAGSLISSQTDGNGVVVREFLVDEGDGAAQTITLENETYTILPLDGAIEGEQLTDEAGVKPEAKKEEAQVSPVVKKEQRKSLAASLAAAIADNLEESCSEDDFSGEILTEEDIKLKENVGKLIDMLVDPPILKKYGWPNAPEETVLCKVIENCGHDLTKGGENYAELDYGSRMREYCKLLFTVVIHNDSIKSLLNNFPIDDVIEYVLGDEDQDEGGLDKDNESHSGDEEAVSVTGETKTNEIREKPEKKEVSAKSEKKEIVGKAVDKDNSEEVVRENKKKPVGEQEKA

B1: Centrosomal protein 190 (CP190) (natural protein, UniProt Q24478 1-1096, looked up)
chain: MGEVKSVKVDNWGVFFLQKLQNFFNKTDYCDLTLQFRDNSQLKVHRLVLSACTDYFNVLEQTCEIVDDALIMPNEFQADVVVPIVNFMYTGTLEFELKMYGKLLRTAKEMNMTVLLKLLEAHRRTMENVNRQQRPPSPKGIRRRTVGQPSSGLPQQRVLGPSPQSRNVATPIAQRANTQRGSTGNTMSRTSGGSNRSPYGDSSNVKQEPTSPFEQLRKGYNNNKRPAQTSLLSPPSKKPSLEEVKEFAEQQRMRKQIAAEYGDNDPEYDGGMLYDDVHAGDDDDDDMPPQPSTSKQQSPQGTQTQLEHGSTTIILKQDSPSQTPTIIVKDSSNAKLNHTKIIAEVLRQYPHIVKGHKNIKLKIMPNTPAAPTEKSAPATVKPPANQSSATTSPHKKLHVSFKADKSTPLITAQQKAASSQQKSGTSQTTGNQGTGANPPANTAAAQKRRIDSKTMHALIAQGAENTTGPWLCLRCGVNGRPISIPSYRGFRRHLINTHKETIDPALCEHCGWRSVNNRELHFHMYMEHQTKSLLYTFAECALCNQSYRTKGELEAHINEVHTDDNKQQCIYCNKVFEQELQLYRHMKSYHKEQALEDGIIDETDEEFLGSQDEEEEAEGDEEQEPEQTGKVRILSDISLPATSAITVQQAQQEQLQEEDVEQVQQEVKFVGADGNEVELTDEQRKEILSQLNQQQAGATAGGVVMVLSEPEAEHVKQETDEKSLAGTEEEYDDSQIYSELGAADSVESAKKNIADESKESIDNLEWAENLIAESEEQSNKEPKSDKPRDDISEKLKELTGDWTEDENDDDVDDKPATAELASELANKDPEPTVHEEEDDIDLALQSLHKGPEEATEEKASEESVTSADDAVDAVPNINSQPEKMDVDSEAADEKASKAEVQIKKEAELENDQEEFIKEDSPIPHSDSVAELREAVTASEGEDDVHLEADNIRKELLDELIAEAEKPDQEKDIVQSEENATTEALDRSVTDEDDLVPPTQVSTEQMEIDEPAAEKAAENNEDTRTADEKEAVEDKPNQTQDVTTAEKPTLESAKAGDEATSGEAASVDKVKSLISEWGDDDEDEDENGVSAAAKEEL
notes: Centrosomal protein 190 (CP190), universal insulator protein of Drosophila; endogenous protein in embryonic nuclear extract; source: endogenous, nuclear extract of 0-24 h Drosophila embryos
B2: Modifier of mdg4 [Mod(mdg4)] 67.2 kDa isoform [Mod(mdg4)67.2] (natural protein, UniProt Q86B87 1-610, looked up)
chain: MADDEQFSLCWNNFNTNLSAGFHESLCRGDLVDVSLAAEGQIVKAHRLVLSVCSPFFRKMFTQMPSNTHAIVFLNNVSHSALKDLIQFMYCGEVNVKQDALPAFISTAESLQIKGLTDNDPAPQPPQESSPPPAAPHVQQQQIPAQRVQRQQPRASARYKIETVDDGLGDEKQSTTQIVIQTTAAPQATIVQQQQPQQAAQQIQSQQLQTGTTTTATLVSTNKRSAQRSSLTPASSSAGVKRSKTSTSANVMDPLDSTTETGATTTAQLVPQQITVQTSVVSAAEAKLHQQSPQQVRQEEAEYIDLPMELPTKSEPDYSEDHGDAAGDAEGTYVEDDTYGDMRYDDSYFTENEDAGNQTAANTSGGGVTATTSKAVVKQQSQNYSESSFVDTSGDQGNTEAQAATSASATKIPPRKRGRPKTKVEDQTPKPKLLEKLQAATLNEEASEPAVYASTTKGGVKLIFNGHLFKFSFRKADYSVFQCCYREHGEECKVRVVCDQKRVFPYEGEHVHFMQASDKSCLPSQFMPGESGVISSLSPSKELLMKNTTKLEEADDKEDEDFEEFEIQEIDEIELDEPEKTPAKEEEVDPNDFREKIKRRLQKALQNKKK
notes: Modifier of mdg4, the 67.2 kDa isoform, Drosophila; The gene has many isoforms; the 67.2 kDa isoform is meant; to be checked; source: endogenous, nuclear extract of 0-24 h Drosophila embryos
B3: Motif 1 Binding Protein (M1BP) (natural protein, UniProt Q9VHM3 1-418, looked up)
chain: MSKSALKHLKSTCRVCAKYASNKRSPKLFERSNTKMIDNIEALTGLRLENYGCLPDQICECCSMELASAVKLRERCIAAQRELLLGLTEEQRQGISAFYRAAVMGEDIVQTVKTPDDDEVYATYQEIVLEEPKEEIDDTKVEYDNTYYEVAEGHAGEDDAASLIEEADYDSIMAEDEEQQQTLELDEDTELIVGDVNDAYVYDSDDEVAVLDNVLDDEYEHENIVVKKCSLPPKPKVRSDDARRRGTGGVYICEQCGNHIKGRMAFELHCRRHRGDKQFGCELCQSRFCTTSELKRHMRKHTGERPFACKYCGRCFTDYTTRVKHERTHTNERPYVCGTCGKAFTTGYILKNHMLIHSGERAYRCELCDKSFMLPTHLSTHFRSGVHKRHLEKAEMKQVLEQEQKRELKEEEEDSLHI
notes: endogenous protein in embryonic nuclear extract; source: endogenous, nuclear extract of 0-24 h Drosophila embryos

Experiments:
Assay in all cases: co-IP; 500 ug nuclear extract of 0-24 h Drosophila embryos incubated overnight at 4 C with antiserum (anti-Su(Hw), anti-CP190, anti-Mod(mdg4)67.2 or anti-M1BP; normal serum as control) cross-linked to Protein A or G Sepharose; washed twice with HBSMT and once with HBSM; western blotting; efficiency as percent of total input protein
Details in all cases: partners not purified
[1] = target: B2
[2] = target: B3
[3] = target: T1, Suppressor of Hairy wing [Su(Hw)]
[4] = target: B1

Row | Binder | percent of total protein immunoprecipitated with anti-Mod(mdg4)67.2 [1] | percent of total protein immunoprecipitated with anti-M1BP [2] | percent of total protein immunoprecipitated with anti-Su(Hw) [3] | percent of total protein immunoprecipitated with anti-CP190 [4]
1 | B1 | 11% | 3.8% | 5.2% | –
2 | B2 | – | 1.4% | 1.9% | 8.2%
3 | B3 | 3% | – | 5.3% | 3.8%
